Test results as given in patent US20200397816A1, “METHODS TO TREAT INFLAMMATORY AND SMOOTH MUSCLE CELL PROLIFERATION DISORDERS” (THE TRUSTEES OF INDIANA UNIVERSITY, priority 2019, published 2020).
“Also recorded” adds a separate entry of the source.

Assays:
Il6 = Il6 transcripts qRT-PCR in hPASMC; format: cell-based, human; details: SMCs, EMAP II time course
Protocol: (§1) RAW 264.7 (ATCC) mouse macrophages and Human Embryonic Kidney (HEK) 293T cells were cultured in DMEM media with 10% fetal bovine serum […] and glutamine HEPES buffer and beta-mercaptoethanol were added to the growth medium used for RAW 264.7 macrophages. […]
(§2) Total RNA was extracted with TriZol using standard RNA extraction protocol and reverse transcribed with SuperScript III Reverse Transcriptase (Thermo Fischer Scientific). SphK1, Tnf, Il6, EGR1, Gapdh, Hprt1 transcripts were quantified using PrimePCR SYBR Green assays from BioRad. […]
(§3) Total RNA was extracted with TriZol using standard RNA extraction protocol and reverse transcribed with SuperScript III Reverse Transcriptase (Thermo Fisher Scientific). SPHK1, Tnf, Il6, EGR1, Gapdh, Hprt1 transcripts were quantified using PrimePCR SYBR Green assays from BioRad.

SphK1 [1] = assay: SphK1 transcripts qRT-PCR in hPASMC; format: cell-based, human; details: SMCs
Protocol: as §1, §2, §3

EGR1 = EGR1 protein western blot (whole cell lysates, nuclear fractions) in RAW 264.7 macrophages; format: cell-based, mouse; details: macrophages
Protocol: (§4) RAW 264.7 (ATCC) mouse macrophages and Human Embryonic Kidney (HEK) 293T cells were cultured in DMEM media with 10% fetal bovine serum […] and glutamine HEPES buffer and beta-mercaptoethanol were added to the growth medium used for RAW 264.7 macrophages. Primary human pulmonary artery smooth muscle cells (hPASMC) purchased from Lonza (Walkersville, Md.) were cultured in complete growth medium containing smooth muscle growth media-2 (SmGM-2) with 10% FBS and growth factors provided as a kit by the supplier (Lonza, (Walkersville, Md.). THP-1 human monocyte cells were cultured in RPMI 1640 with 10% FBS and glutamine Cells were cultured in a humidified atmosphere with 5% CO2 at 370 C. For all studies passages 5-14 were used for RAW 264.7 and passages 5-10 were used for hPASMCs. For treatment studies, subconfluent cells plated in multi-well plates were serum starved and if required, pretreated for with inhibitors before stimulating with 2 μg/mL recombinant EMAP II.
(§5) After appropriate treatments, protein lysates were prepared by using RIPA buffer supplemented with phosphatase and protease inhibitors (Thermo Fischer Scientific). Alpha-tubulin was used as a loading control. For nuclear and cytoplasmic fractionation, NE-PER kit from Thermo Fischer Scientific was used. Western blots were performed according to standard methods and quantified using densitometry using Image Studio Lite software from LI-COR Biosciences.
RAW 264.7 (ATCC) mouse macrophages and HEK-293T (ATCC) cells were cultured in DMEM media with 10% (v/v) fetal bovine serum (FBS) and 2 mM glutamine HEPES buffer and beta-mercaptoethanol were added to the growth medium used for RAW 264.7 macrophages. Primary human pulmonary artery smooth muscle cells (hPASMC) purchased from Lonza (Walkersville, Md.) were cultured in complete growth medium containing smooth muscle growth media-2 (SmGM-2) with 10% FBS and growth factors provided as a kit by the supplier (Lonza, (Walkersville, Md.). THP-1 human monocyte cells were cultured in RPMI 1640 with 10% FBS and glutamine Cells were cultured in a humidified atmosphere with 5% CO2 at 37° C. For all studies passages 5-14 were used for RAW 264.7 and passages 5-10 were used for hPASMCs. For treatment studies, subconfluent cells plated in multi-well plates were serum starved and if required, pretreated with inhibitors before stimulation with 2 μg/mL recombinant EMAP II.
After appropriate treatments, protein lysates were prepared by using RIPA buffer supplemented with phosphatase and protease inhibitors (Thermo Fisher Scientific). Alpha-tubulin was used as a loading control. […] Western blots were performed according to standard methods and quantified using densitometry using Image Studio Lite software from LI-COR Biosciences.

SphK1 [2] = assay: SphK1 protein western blot in RAW 264.7 macrophages; format: cell-based, mouse
Protocol: as §1
(§6) After appropriate treatments, protein lysates were prepared by using RIPA buffer supplemented with phosphatase and protease inhibitors (Thermo Fischer Scientific). […] Western blots were performed according to standard methods and quantified using densitometry using Image Studio Lite software from LI-COR Biosciences. […]
(§7) After appropriate treatments, protein lysates were prepared by using RIPA buffer supplemented with phosphatase and protease inhibitors (Thermo Fisher Scientific). […] Western blots were performed according to standard methods and quantified using densitometry using Image Studio Lite software from LI-COR Biosciences.

SphK1 [3] = assay: SphK1 protein western blot in hPASMC; format: cell-based, human; details: SMCs; EMAP II 6 hours
Protocol: as §1, §6
After appropriate treatments, protein lysates were prepared by using RIPA buffer supplemented with phosphatase and protease inhibitors (Thermo Fisher Scientific). […] Western blots were performed according to standard methods and quantified using densitometry using Image Studio Lite software from LI-COR Biosciences. […]

hPASMC = assay: WST-1 cell proliferation assay in hPASMC; format: cell-based, human; details: SMCs; EMAP II 2 μg/mL 48 hours
Protocol: (§8) Cell proliferation of hPASMCs was assessed using WST-1 cell proliferation reagent (Roche Diagnostic Corporation, IN) in a 96-well plate. Human PASMCs were seeded at 4200 cells/well density in 100 μl complete medium and serum starved for overnight. Cells were stimulated for 48 hours with 2 μg/mL EMAP II following the pretreatment with inhibitors. WST-1 reagent (10 μL) was added into each well and incubated for 90 minutes in a humidified atmosphere with 5% CO2 at 370 C. Absorbance was measured at 450 nm using microplate reader. Blank control well was with medium and WST-1 reagent without cultured cells. All samples were in duplicates. Cell proliferation was determined by subtracting the background reading from average of duplicate of each sample.
as §8, with “37°” for “370”, “Blank control well was with medium and WST-1 reagent without cultured cells. All samples were in duplicates.” left out

pERK1/2 = pERK1/2 western blot time course in RAW 264.7 macrophages; format: cell-based, mouse
Protocol: as §4, §5
RAW 264.7 (ATCC) mouse macrophages and HEK-293T (ATCC) cells were cultured in DMEM media with 10% (v/v) fetal bovine serum (FBS) and 2 mM glutamine HEPES buffer and beta-mercaptoethanol were added to the growth medium used for RAW 264.7 macrophages. […]
as §7

TNF = TNF in SMCs (data not shown); format: cell-based, human
pSTAT3 (Y705) = assay: EMAP II induced pSTAT3 western blot in RAW 264.7 macrophages; format: cell-based, mouse; details: macrophages; EMAP II 24 hours
Protocol: as §5
After appropriate treatments, protein lysates were prepared by using RIPA buffer supplemented with phosphatase and protease inhibitors (Thermo Fisher Scientific). Alpha-tubulin was used as a loading control. For nuclear and cytoplasmic fractionation, NE-PER kit from Thermo Fischer Scientific was used. Western blots were performed according to standard methods and quantified using densitometry using Image Studio Lite software from LI-COR Biosciences.

SphK1 [4] = assay: SphK1 transcripts qRT-PCR in RAW 264.7 macrophages; format: cell-based, mouse
Protocol: as §1, §2, §3

B1: EMAP II: 6x-His tagged recombinant EMAP II, cleaved C-terminal peptide of AIMP1 (SEQ ID NO: 2), pro-inflammatory cytokine (protein)
chain: IAGSADSKPIDVSRLDLRIGCIITARKHPDADSLYVEEVDVGEIAPRTVVSGLVNHVPLEQMQNRMVILLCNLKPAKMRGVLSQAMVMCASSPEKIEILAPPNGSVPGDRITFDAFPGEPDKELNPKKKIWEQIQPDLHTNDECVATYKGVPFEVKGKGVCRAQTMSNSGIK
Il6
  Il6 transcription: increased transcription
SphK1 [1]
  time of peak SphK1 transcription after EMAP II stimulation: 3 h
EGR1; 1 to 2 hours following EMAP II
  EGR1 expression in whole cell lysates: significant upregulation
EGR1; EMAP II 2 μg/mL, at 2 hours
  upregulation of nuclear expression of EGR1: 9 fold
SphK1 [2]; EMAP II treated macrophages
  protein expression of SphK1 compared to control: about 1.7 times
SphK1 [2]; macrophages, EMAP II 6 hours
  SphK1 protein expression: significant overexpression; also recorded: significantly increased
SphK1 [3]
  SphK1 protein expression: significant overexpression; also recorded: significantly increased
hPASMC
  cell proliferation (WST1): promotes cell proliferation
pERK1/2
  earliest time of pERK1/2 activation: 5 minutes
  time of pERK1/2 peak: 1 hour
pERK1/2; 24-hour time course
  ERK1/2 phosphorylation (pERK1/2 normalized to ERK1/2): induced ERK1/2 phosphorylation; also recorded: bi-modal activation; also recorded: bimodal activation
TNF
  TNF induction: absent
pSTAT3 (Y705)
  STAT3 activation (pSTAT3): induced STAT3 activation
SphK1 [4]; EMAP II treated macrophages
  induction of SphK1 transcription compared to control: about 4 times
SphK1 [4]; macrophages
  time of peak SphK1 transcription after EMAP II stimulation: 3 h
